Measured values taken from patent US20250361282A1.

Legend:
[1] = biological target: rat NPR-A (rat) (UniProt P18910); assay: cell-based or functional assay
[2] = biological target: rat NPR-B (rat) (UniProt P16067); assay: cell-based or functional assay
Sequence of rat NPR-B (rat) (P16067 17-1047): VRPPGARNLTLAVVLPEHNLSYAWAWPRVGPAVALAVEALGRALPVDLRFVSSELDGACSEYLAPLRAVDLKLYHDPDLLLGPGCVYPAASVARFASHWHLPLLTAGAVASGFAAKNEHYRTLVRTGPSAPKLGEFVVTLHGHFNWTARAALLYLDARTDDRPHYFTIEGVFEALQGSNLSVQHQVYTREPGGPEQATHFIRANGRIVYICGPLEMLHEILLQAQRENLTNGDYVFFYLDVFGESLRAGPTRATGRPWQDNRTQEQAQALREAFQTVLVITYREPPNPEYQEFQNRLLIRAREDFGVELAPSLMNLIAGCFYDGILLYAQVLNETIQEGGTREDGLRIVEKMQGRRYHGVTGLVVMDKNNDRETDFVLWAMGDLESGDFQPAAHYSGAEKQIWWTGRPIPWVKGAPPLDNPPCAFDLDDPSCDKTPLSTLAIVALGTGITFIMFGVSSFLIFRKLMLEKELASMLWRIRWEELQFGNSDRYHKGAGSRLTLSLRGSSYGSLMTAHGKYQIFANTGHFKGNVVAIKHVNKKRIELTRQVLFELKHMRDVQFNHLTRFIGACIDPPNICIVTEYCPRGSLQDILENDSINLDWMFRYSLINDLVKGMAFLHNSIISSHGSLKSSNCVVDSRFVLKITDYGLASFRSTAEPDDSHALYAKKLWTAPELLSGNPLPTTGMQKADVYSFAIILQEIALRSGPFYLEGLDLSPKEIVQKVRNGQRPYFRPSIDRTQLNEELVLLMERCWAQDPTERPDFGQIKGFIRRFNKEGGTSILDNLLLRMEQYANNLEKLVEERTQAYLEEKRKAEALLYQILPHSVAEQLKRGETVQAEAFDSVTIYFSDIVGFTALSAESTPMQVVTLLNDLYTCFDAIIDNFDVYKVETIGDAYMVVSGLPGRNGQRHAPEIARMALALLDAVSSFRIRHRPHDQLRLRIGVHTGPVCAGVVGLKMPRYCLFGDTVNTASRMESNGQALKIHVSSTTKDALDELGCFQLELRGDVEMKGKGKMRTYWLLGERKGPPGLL

Sequence of rat NPR-A (rat) (P18910 29-1057): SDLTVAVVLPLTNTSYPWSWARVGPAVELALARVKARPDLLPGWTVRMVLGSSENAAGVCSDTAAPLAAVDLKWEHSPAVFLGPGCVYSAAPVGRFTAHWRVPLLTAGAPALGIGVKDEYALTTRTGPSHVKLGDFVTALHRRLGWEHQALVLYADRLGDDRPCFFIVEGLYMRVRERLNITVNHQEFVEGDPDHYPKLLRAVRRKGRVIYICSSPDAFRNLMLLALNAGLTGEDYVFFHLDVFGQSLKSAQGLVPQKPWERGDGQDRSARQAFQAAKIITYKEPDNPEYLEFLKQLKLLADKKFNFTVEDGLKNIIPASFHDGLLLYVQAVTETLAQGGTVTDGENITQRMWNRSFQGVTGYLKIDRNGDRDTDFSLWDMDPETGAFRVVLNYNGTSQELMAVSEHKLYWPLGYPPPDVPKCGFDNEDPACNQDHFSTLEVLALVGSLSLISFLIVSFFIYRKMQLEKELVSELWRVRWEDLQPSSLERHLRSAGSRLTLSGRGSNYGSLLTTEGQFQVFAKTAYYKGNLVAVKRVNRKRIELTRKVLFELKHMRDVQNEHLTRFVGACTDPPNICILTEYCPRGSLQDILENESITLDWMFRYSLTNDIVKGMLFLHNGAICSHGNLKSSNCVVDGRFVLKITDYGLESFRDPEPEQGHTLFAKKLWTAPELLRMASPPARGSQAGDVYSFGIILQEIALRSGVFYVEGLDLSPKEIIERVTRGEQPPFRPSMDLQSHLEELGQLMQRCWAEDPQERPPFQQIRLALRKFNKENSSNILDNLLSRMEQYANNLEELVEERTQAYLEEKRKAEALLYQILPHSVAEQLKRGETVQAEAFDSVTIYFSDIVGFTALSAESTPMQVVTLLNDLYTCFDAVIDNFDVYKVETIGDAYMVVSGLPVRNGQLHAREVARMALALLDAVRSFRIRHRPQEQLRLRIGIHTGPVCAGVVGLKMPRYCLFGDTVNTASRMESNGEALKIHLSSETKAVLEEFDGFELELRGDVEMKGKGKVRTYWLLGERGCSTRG

Row | Substance | EC50, fluorescence signal of rat NPR-A / CNGA2 (cGMP biosensor) / GCaMP6 CHO reporter cells [1] | EC50, luminescence signal of rat NPR-B reporter cells [2]
1 | ANP (Bachem, H-2100) (from UniProt P01161 123-150) (peptide) | 0.22 nM | –
2 | BNP (Bachem, H-5968) (from UniProt P13205 90-121) (peptide) | 2.9 nM | –
3 | CNP (Bachem, H-1296) (from UniProt P23582 105-126) (peptide) | – | 0.024 nM
